{"source": "patent US20190083615A1", "about": "(Merck Sharp & Dohme, published 2019)", "biological_target": "T1, human LAG3 (Lymphocyte Activation Gene-3) expressed on cells (human, UniProt P18627 23-525)", "T1 sequence": "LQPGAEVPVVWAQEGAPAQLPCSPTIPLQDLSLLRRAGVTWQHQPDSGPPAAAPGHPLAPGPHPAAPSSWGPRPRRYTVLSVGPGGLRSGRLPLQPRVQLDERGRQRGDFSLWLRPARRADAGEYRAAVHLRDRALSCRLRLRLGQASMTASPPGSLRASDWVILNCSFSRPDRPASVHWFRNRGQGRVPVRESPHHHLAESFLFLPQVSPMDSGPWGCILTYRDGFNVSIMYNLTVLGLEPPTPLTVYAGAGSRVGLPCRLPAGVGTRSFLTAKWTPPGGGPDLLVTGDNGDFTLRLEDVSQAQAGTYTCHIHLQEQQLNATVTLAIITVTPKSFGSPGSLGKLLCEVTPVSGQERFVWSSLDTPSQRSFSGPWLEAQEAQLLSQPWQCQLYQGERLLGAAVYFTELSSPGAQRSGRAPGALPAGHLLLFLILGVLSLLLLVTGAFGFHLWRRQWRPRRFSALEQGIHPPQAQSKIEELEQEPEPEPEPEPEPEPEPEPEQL", "test": "cell-based or functional assay"}
{"binder": "Ab6: humanized light chain 45AGX Humanized x[LAG3_H] mAb (LB145.22D2.E1.D1 (VL3)) Kappa (PX) and humanized heavy chain 73AHD Humanized x[LAG3_H] mAb … (antibody, Humanized 22D2 N55D, IgG4 S228P/kappa; also called Hu22D2 VH6/VL3 N55D (Ab 6); hu22D2 VH6/VL3 N55D) heavy: not shown light: DIVMTQTPLSLSVTPGQPASISCKASQSLDYEGDSDMNWYLQKPGQPPQLLIYGASNLESGVPDRFSGSGSGTDFTLKISRVEAEDVGVYYCQQSTEDPRTFGGGTKVEIKRTVAAPSVFIFPPSDEQLKSGTASVVCLLNNFYPREAKVQWKVDNALQSGNSQESVTEQDSKDSTYSLSSTLTLSKADYEKHKVYACEVTHQGLSSPVTKSFNRGEC", "values": [{"measurement": "IL-2 production by SEB-stimulated PBMC in combination with anti-PD1, fold over anti-PD-1 alone plus isotype control", "value": 1.45, "unit": "fold"}, {"measurement": "IL-2 production by SEB-stimulated PBMC, fold over isotype control", "value": 1.54, "unit": "fold"}]}
